Data as given in US20050148035A1 (Genentech, published 2005).

How the values were obtained:
miniBP-3 fusion protein = molecular target: T1, miniBP-3 fusion protein (human); assay: BIAcore competition, bp15 preincubated with miniBP-3 fusion, injected over immobilised biotinylated IGF-I
T1 construct: Uncleaved fusion, made in E. coli BL21 from pET21a and purified on IgG Sepharose

[1] = molecular target: T2, native-sequence human IGFBP-3 (human, UniProt P17936 28-291); assay: BIAcore competition: bp15 (15 nM to 100 µM) pre-incubated 1 h with 20 nM IGFBP-3, injected over immobilised biotinylated IGF-I (bIGF-I, squares); blocked ligand IGF-I; one-site competition fit
T2 construct: also called wild-type IGFBP-3; full-length IGFBP-3

[2] = molecular target: T2, native-sequence human IGFBP-3; assay: BIAcore competition: bp15 (15 nM to 100 µM) pre-incubated 1 h with 20 nM IGFBP-3, injected over immobilised biotinylated IGF-II (bIGF-II, triangles); blocked ligand IGF-II; one-site competition fit

B1: peptide bp15 (peptide)
peptide: SEEVCWPVAEWYLCN
notes: Identified by phage display (Lowman et al. 1998); also called bp15 peptide
miniBP-3 fusion protein
  binding result: binds
[1]
  IC50: 105 nM
[2]
  IC50: 147 nM
